Assay results from US20240252614A1 (Pfizer, published 2024).

Columns and labels:
PIV1046 = target: T1, PIV1046 (PIV1); experiment: BLI, 53C stress;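 note: binding of thermally stressed PIV1 F mutant supernatant to mAb on AHC biosensors for 5 min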
T1 construct: A466V, S473V
Experimental: (§1) All measurements were conducted at 30° C. temperature in 96-well black plates (Corning, Corning, NY) with a final volume of 240 μL per well at a constant agitation rate of 1000 RPM.
(§2) Conformation integrity of PIV1 F protein mutants were evaluated by a thermal stress experiment. Crude cell culture supernatants were normalized based on the results of the titer quantitation and then incubated for 1 hour at room temperature and two higher temperatures. For the initial testing of PIV1 mutants, the two temperatures were 50° C. and 53° C. […] Anti-Human IgG Fc Capture (AHC) biosensors were first equilibrated in PB for before being dipped into more PB to establish the initial baseline. […] The mAb-bound biosensors were then dipped into the thermal stresses cell culture supernatants for 5 minutes.

PIV1042 = target: T2, PIV1042 (PIV1); experiment: BLI, 53C stress;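 note: binding of thermally stressed PIV1 F mutant supernatant to mAb on AHC biosensors for 5 min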
T2 construct: Q92A
Experimental: as §1, §2

PIV1045 = target: T3, PIV1045 (PIV1); experiment: BLI, 53C stress;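 note: binding of thermally stressed PIV1 F mutant supernatant to mAb on AHC biosensors for 5 min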
T3 construct: Q92L, G134A
Experimental: as §1, §2

PIV1043 = target: T4, PIV1043 (PIV1); experiment: BLI, 53C stress;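 note: binding of thermally stressed PIV1 F mutant supernatant to mAb on AHC biosensors for 5 min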
T4 construct: Q92A, G134A
Experimental: as §1, §2

PIV1044 = target: T5, PIV1044 (PIV1); experiment: BLI, 53C stress
T5 construct: Q92L
Experimental: as §1, §2

[1] = target: T6, stabilized hPIV1 F protein trimer in pre-fusion conformation (human parainfluenza virus 1); experiment: BLI, mAb captured, F protein at 50 nM
T6 construct: also called preF-hPIV1; HPIV1 pre-fusion F protein

hMPV139 = target: T7, hMPV139 (hMPV B, UniProt Q6WB98 19-102); experiment: BLI, 63C stress
T7 construct: T49I, L141C-A161C, T411C-Q434C
Experimental: (§3) Conformation integrity of hMPV B F protein mutants were evaluated by a thermal stress experiment. Crude cell culture supernatants were normalized based on the results of the titer quantitation and then incubated for 1 hour at room temperature and two higher temperatures. For the testing of hMPV B single mutants, the two temperatures were 53° C. and 56° C. After the incubation, the protein mutants were probed with prefusion specific monoclonal antibody hMPV-2 by OCTET HTX. Anti-Human IgG Fc Capture (AHC) biosensors were first equilibrated in PB before being dipped into more PB for to establish the initial baseline. Biosensors were incubated with hMPV-2 before being equilibrated in PB to establish the experimental baseline. The mAb-bound biosensors were then dipped into the thermal stresses cell culture supernatants for 5 minutes.

hMPV144 = target: T8, hMPV144 (hMPV B, UniProt Q6WB98 19-102); experiment: BLI, 63C stress
T8 construct: T49I, L141C-A161C, S149T, A459P
Experimental: as §3

hMPV122 = target: T9, hMPV122 (hMPV B, UniProt Q6WB98 19-102); experiment: BLI, 63C stress
T9 construct: A140C-S149C, T411C-Q434C, A459P
Experimental: as §3

hMPV134 = target: T10, hMPV134 (hMPV B, UniProt Q6WB98 19-102); experiment: BLI, 63C stress
T10 construct: T49I, L141C-A161C, S149T, G239A, T365I, T411C-Q434C, A459P
Experimental: as §3

hMPV129 = target: T11, hMPV129 (hMPV B, UniProt Q6WB98 19-102); experiment: BLI, 63C stress
T11 construct: T49I, A140C-S149C, G239A, T365I, T411C-Q434C, A459P
Experimental: as §3

hMPV138 = target: T12, hMPV138 (hMPV B, UniProt Q6WB98 19-102); experiment: BLI, 63C stress
T12 construct: T49I, A140C-S149C, A459P
Experimental: as §3

hMPV119 = target: T13, hMPV119 (hMPV B, UniProt Q6WB98 19-102); experiment: BLI, 63C stress
T13 construct: T49I, T150C-R156C, A459P
Experimental: as §3

hMPV125 = target: T14, hMPV125 (hMPV B, UniProt Q6WB98 19-102); experiment: BLI, 63C stress
T14 construct: L141C-A161C, G239A, T411C-Q434C
Experimental: as §3

hMPV131 = target: T15, hMPV131 (hMPV B, UniProt Q6WB98 19-102); experiment: BLI, 63C stress
T15 construct: T49I, L141C-A161C, G239A, T411C-Q434C, A459P
Experimental: as §3

hMPV121 = target: T16, hMPV121 (hMPV B, UniProt Q6WB98 19-102); experiment: BLI, 63C stress
T16 construct: L141C-A161C, T411C-Q434C
Experimental: as §3

hMPV137 = target: T17, hMPV137 (hMPV B, UniProt Q6WB98 19-102); experiment: BLI, 63C stress
T17 construct: T49I, A140C-S149C
Experimental: as §3

hMPV120 = target: T18, hMPV120 (hMPV B, UniProt Q6WB98 19-102); experiment: BLI, 63C stress
T18 construct: A140C-S149C, T411C-Q434C
Experimental: as §3

hMPV133 = target: T19, hMPV133 (hMPV B, UniProt Q6WB98 19-102); experiment: BLI, 63C stress
T19 construct: T49I, L141C-A161C, S149T, G239A, T411C-Q434C, A459P
Experimental: as §3

hMPV130 = target: T20, hMPV130 (hMPV B, UniProt Q6WB98 19-102); experiment: BLI, 63C stress
T20 construct: L141C-A161C, G239A, T411C-Q434C, A459P
Experimental: as §3

hMPV136 = target: T21, hMPV136 (hMPV B, UniProt Q6WB98 19-102); experiment: BLI, 63C stress
T21 construct: A140C-S149C, A459P
Experimental: as §3

hMPV128 = target: T22, hMPV128 (hMPV B, UniProt Q6WB98 19-102); experiment: BLI, 63C stress
T22 construct: T49I, A140C-S149C, G239A, T411C-Q434C, A459P
Experimental: as §3

hMPV126 = target: T23, hMPV126 (hMPV B, UniProt Q6WB98 19-102); experiment: BLI, 63C stress
T23 construct: T49I, T150C-R156C, G239A, A459P
Experimental: as §3

hMPV142 = target: T24, hMPV142 (hMPV B, UniProt Q6WB98 19-102); experiment: BLI, 63C stress
T24 construct: L141C-A161C, S149T, A459P
Experimental: as §3

hMPV117 = target: T25, hMPV117 (hMPV B, UniProt Q6WB98 19-102); experiment: BLI, 63C stress
T25 construct: T150C-R156C, A459P
Experimental: as §3

hMPV118 = target: T26, hMPV118 (hMPV B, UniProt Q6WB98 19-102); experiment: BLI, 63C stress
T26 construct: T49I, T150C-R156C
Experimental: as §3

hMPV132 = target: T27, hMPV132 (hMPV B, UniProt Q6WB98 19-102); experiment: BLI, 63C stress
T27 construct: L141C-A161C, S149T, G239A, T411C-Q434C, A459P
Experimental: as §3

hMPV123 = target: T28, hMPV123 (hMPV B, UniProt Q6WB98 19-102); experiment: BLI, 63C stress
T28 construct: A140C-S149C, G239A, T411C-Q434C
Experimental: as §3

hMPV B F WT Control = hMPV B F WT Control (hMPV B, UniProt Q6WB98 19-102); experiment: BLI, 63C stress
Experimental: as §3

hMPV124 = target: T29, hMPV124 (hMPV B, UniProt Q6WB98 19-102); experiment: BLI, 63C stress
T29 construct: L141C-A161C, T411C-Q434C, A459P
Experimental: as §3

hMPV127 = target: T30, hMPV127 (hMPV B, UniProt Q6WB98 19-102); experiment: BLI, 63C stress
T30 construct: A140C-S149C, G239A, T411C-Q434C, A459P
Experimental: as §3

B1: PIV1-8 mAb (antibody, V domains shown)
VH: QVQLVQSGAEVKKPGSSVKVSCEASGGTFSNYVISWVRQAPGQGLEWMGGIIPVFATAKYAQKFQGRVTIIADQSTNTAYLELSSLRSDDTAVYFCASVDSGGTWWDAFAIWGQGTMVTVSS
VL: QAVVTQPRSVSGSPGQAVTISCTGTSSDVGGYNYVSWYQHHPGKAPKLIIYDVTKRPSGVPDRFSGSKSGNTASLTISGLQTEYEADYYCCSYAGSYTLVFGGGTKLTVLG
notes: human IgG1; also called hPIV1-8 mAb; hPIV1-8
With B1 the “Response Shift” value (PIV1046) was -0.059 nm, the “Response Shift” value (PIV1042) was -0.052 nm and the “Response Shift” value (PIV1045) was -0.054 nm. For the same binder, the “Response Shift” value (PIV1043) was -0.012 nm, the “Response Shift” value (PIV1044) was -0.007 nm and the “Binding response BLI” value [1] was 1.96 nm.

B2: hMPV-2 mAb (antibody, V domains shown)
VH: QVQLQQSGAEVKKPGASVKVSCKASGYTFTSYGISWVRQAPGQGLEWMGWISGYNGNTNYAQTFQGTFTMTTDTSTSTAYMELRRLRSGDTAVYYCARDRYYASGSYNGMDVWGQGTTVTVSS
VL: QSALTQPPSASGAPGQRVTVSCSGSSSNVGSSSVYWYQQLPGTAPKLLIYRNNQRPSGVPDRFSGSKSGTSASLAISGLRSEDEADYYCAAWDDSLSGWVFGGGTKLTVLG
notes: human IgG1
B2 was tested, and the “Response Shift” value (hMPV139) was 0.456 nm, the “Response Shift” value (hMPV144) was -0.015 nm and the “Response Shift” value (hMPV122) was 0.665 nm. For the same binder, the “Response Shift” value (hMPV134) was 0.733 nm, the “Response Shift” value (hMPV129) was 0.661 nm and the “Response Shift” value (hMPV138) was 0.156 nm. The “Response Shift” value (hMPV119) was 0.017 nm, the “Response Shift” value (hMPV125) was 0.233 nm and the “Response Shift” value (hMPV131) was 0.679 nm. For the same binder, the “Response Shift” value (hMPV121) was 0.078 nm, the “Response Shift” value (hMPV137) was 0.238 nm and the “Response Shift” value (hMPV120) was 0.502 nm. The “Response Shift” value (hMPV133) was 0.62 nm, the “Response Shift” value (hMPV130) was 0.079 nm and the “Response Shift” value (hMPV136) was -0.027 nm. For the same binder, the “Response Shift” value (hMPV128) was 0.746 nm, the “Response Shift” value (hMPV126) was -0.075 nm and the “Response Shift” value (hMPV142) was 0.054 nm. The “Response Shift” value (hMPV117) was 0 nm, the “Response Shift” value (hMPV118) was 0.028 nm and the “Response Shift” value (hMPV132) was 0.606 nm. The “Response Shift” value (hMPV123) was 0.549 nm, the “Response Shift” value (hMPV B F WT Control) was 0.017 nm and the “Response Shift” value (hMPV124) was 0.065 nm. The “Response Shift” value (hMPV127) was 0.696 nm.
